From publication PMC5714288

Target: pyruvate kinase isoform M2 (PKM2) (human (endogenous in U1 and U937)) (UniProt P14618)
Test: native gel or EMSA

Sequence of pyruvate kinase isoform M2 (PKM2), P14618 1-531 (natural protein; other documents disagree on this pair) (P14618 whole entry, canonical isoform): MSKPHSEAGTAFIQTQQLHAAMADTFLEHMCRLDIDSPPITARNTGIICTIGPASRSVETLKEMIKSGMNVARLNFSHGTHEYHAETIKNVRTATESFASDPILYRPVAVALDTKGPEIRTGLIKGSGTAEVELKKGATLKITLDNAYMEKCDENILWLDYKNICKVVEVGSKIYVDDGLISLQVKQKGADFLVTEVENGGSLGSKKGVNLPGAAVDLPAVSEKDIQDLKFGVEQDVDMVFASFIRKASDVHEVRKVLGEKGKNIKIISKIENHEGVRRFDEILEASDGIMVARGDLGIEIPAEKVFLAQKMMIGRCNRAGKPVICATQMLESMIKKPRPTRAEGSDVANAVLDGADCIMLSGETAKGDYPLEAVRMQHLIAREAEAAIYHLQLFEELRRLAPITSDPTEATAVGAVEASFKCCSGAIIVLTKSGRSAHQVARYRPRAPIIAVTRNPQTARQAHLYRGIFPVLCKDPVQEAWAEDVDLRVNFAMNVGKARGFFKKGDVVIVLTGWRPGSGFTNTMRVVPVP

stoichiometry N: 2
Substance: pyruvate kinase isoform M2 (PKM2), P14618 1-531 (natural protein; other documents disagree on this pair)
